Experimental data: the supplement of paper PMC10567573
± gives the standard deviation.

Experiment: protein stability index of a GFP-peptide fusion (GPS, HEK-293T) (PSI 1-6); higher = more stable
[1] = treatment: DMSO, c terminus: a fixed tail appended
[2] = treatment: MLN4924 1 uM, 8 h, c terminus: a fixed tail appended
[3] = treatment: DMSO, c terminus: native
[4] = treatment: MLN4924 1 uM, 8 h, c terminus: native
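Note: 24-mer peptide tiles fused after GFP, lentivirally expressed, FACS-sorted into six equal bins by GFP/DsRed ratio, decoded by Illumina sequencing, PSI is the read-weighted mean bin number.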

Sequence | protein stability index [1] | protein stability index [2] | protein stability index [3] | protein stability index [4]
EPEQTGADAAEDEEVDVTSVDPIA [RBBP5] | 5.64 ± 0.18 | 5.55 ± 0.33 |  | 
EPMWSGSTMRRMALRPTAFSGCLN [EMID1] | 2.82 ± 0.27 | 2.79 ± 0.16 |  | 
EPNTFSPANVDASVMFRKWRDSKG [UBE2R2] | 4.16 ± 0.46 | 4.4 ± 0.3 |  | 
EPPEEPEQCPVIDSQAPAGSLDLV [SPDEF] | 5.37 ± 0.17 | 5.51 ± 0.18 |  | 
EPPPVKQELPPYNGFGLVEDSAQN [EFHC1] | 5.15 ± 0.059 | 5.15 ± 0.066 |  | 
EPRQRRLLLLDLLALYTPVGAAGS [ANKRD9] | 2.65 ± 0.57 | 2.44 ± 0.88 |  | 
EQNQEGDAAYRKALDLAREFLPQG [AUH] | 4.42 ± 0.19 | 4.44 ± 0.37 |  | 
ERDIEIGFLPWLMNEVEKTMEYSM [RSPH3] | 2.41 ± 0.46 | 2.42 ± 0.18 |  | 
ERELLGQDEETAMRKSLGEEELS [RSPH3] |  |  | 5.48 ± 0.4 | 5.575 ± 0.042
ERERQPCGDGNTETHRAPDLVQWT [SOAT2] | 4.92 ± 0.06 | 4.65 ± 0.24 |  | 
ERLVVLDYIIRNTDRGNDNWLIKY [PI4K2A] | 2.2 ± 0.65 | 2.49 ± 0.65 |  | 
ESCEEKNQLILTASADRTVIVWDG [WDR41] | 4.01 ± 0.085 | 3.79 ± 0.1 |  | 
ESDSCVSFEAPLTPLIQQRARDSP [PSD2] | 5.02 ± 0.16 | 4.92 ± 0.24 |  | 
ESGVSVSNSQPTNESHSIKAILKN [SLC29A1] | 5.03 ± 0.53 | 4.9 ± 0.46 |  | 
ESKVKDILSKVQKNHVGKPLLKMD [FAM98B] | 3.49 ± 0.17 | 3.79 ± 0.19 |  | 
ESRKSKRRNSEFEIFVDCDINREQ [TPH1] | 4.85 ± 0.31 | 4.92 ± 0.59 |  | 
ETIEGAPPLWAASAAGHLDVVRSL [FEM1A] | 3.78 ± 0.16 | 3.72 ± 0.13 |  | 
ETSRSHDLEAVVPQNGSETGWARK [ATP23] | 4.95 ± 0.2 | 5.21 ± 0.12 |  | 
EVEEADGNKQWWFGGGCDLTPTYL [CPOX] | 3.43 ± 0.49 | 3.36 ± 0.39 |  | 
EVEGTKPSATEMIWAVLAAFNKS [GOLPH3L] |  |  | 2.4 ± 0.18 | 2.4 ± 0.33
EVEIVGVQEHARCVHPRGGVIQSV [C18orf25] | 3.45 ± 0.35 | 3.6 ± 0.31 |  | 
EVVNMAVIVPKEEGVISVSEDRTV [WDFY2] | 4.04 ± 0.42 | 4.22 ± 0.34 |  | 
FACPSKTDFFKNIMNFIDIVAIIP [KCNA1] | 3.29 ± 0.58 | 3.1 ± 0.49 |  | 

Sequence | protein stability index [1] | protein stability index [2] | protein stability index [3] | protein stability index [4]
FAELSVDMEKILEIIRVILKLYEQ [CCNC] | 2.2 ± 0.12 | 2.69 ± 0.25 |  | 
FDDEEPRKFYVHIKPAPARAPACS [FCHO1] | 3.27 ± 0.14 | 3.29 ± 0.38 |  | 
FDEPFLTRNVQSVSIIDTELKVKD [TRIP13] | 4.65 ± 0.19 | 4.49 ± 0.068 |  | 
FDGTAHLSSVEAYNIRTDSWTTVT [KLHL12] | 2.58 ± 0.38 | 2.62 ± 0.52 |  | 
FDTFIQKTKKLYIDSRARRNLGSI [SEC22B] | 2.48 ± 0.5 | 2.22 ± 0.12 |  | 
FEPVKSFFKGLVEAVESTLQTPLD [TRIM14] | 2.19 ± 0.2 | 2.4 ± 0.23 |  | 
FEQGKWDVFSENLLADVKGARAAL [STX11] | 2.67 ± 0.14 | 2.72 ± 0.45 |  | 
FEQYCAWQLFLAHNIPLETIIPIL [INTS3] | 3.27 ± 0.74 | 2.85 ± 0.34 |  | 
FFFRHGHRGLLTMQLKSPMPSSTT [SPAG8] | 2.14 ± 0.26 | 2 ± 0.23 |  | 
FFVPLSYLLMVTVILLPYVSKVTG [TMEM175] | 3.33 ± 0.26 | 3.11 ± 0.31 |  | 
FGSRSLYSLGGVRSLNVASGSGKS [KRT71] | 2.35 ± 0.77 | 3.01 ± 0.82 |  | 
FKDYIQERSDPVEQGKPVIPAAVL [ETS2] | 4.08 ± 0.2 | 3.97 ± 0.27 |  | 
FLAENSAFPKMALQAKQDGKKDVS [LCOR] | 4.23 ± 0.29 | 4.36 ± 0.36 |  | 
FLEQRPQSPTLEFLLRNSQRTVGQ [EDARADD] | 3.15 ± 0.32 | 3.43 ± 0.34 |  | 
FLLSVYAPGSSVEYQCQNLYQLEG [CFHR2] | 2.75 ± 0.48 | 2.52 ± 0.44 |  | 
FLPGGDMMTLLMKKDTLTEEETQF [STK38L] | 2.89 ± 0.6 | 3.44 ± 0.51 |  | 
FMLRYLYSQKESGHSNWLGDPEEP [ATL3] | 2.75 ± 0.33 | 2.06 ± 0.48 |  | 
FNGKGKKIRKPRTIYCSLQLQALN [DLX1] | 2.38 ± 0.5 | 2.75 ± 0.31 |  | 
FNIVYIYTSELYPTVIRNVGLGTC [SLC22A15] | 3.07 ± 0.23 | 3.07 ± 0.62 |  | 
FNMWGFGRVSKQASQPVKKQQENA [WDR41] | 3.12 ± 0.25 | 3.54 ± 0.18 |  | 
FNNGAHMSLLPDKKTVHYYAELGQ [PLK2] | 2.92 ± 0.34 | 2.66 ± 0.25 |  | 
FPGVVARPIGEFRSNADYQYQLLR [CNOT7] | 3.05 ± 0.3 | 2.97 ± 0.2 |  | 
FQGSQGRAYLFNSVVNVGCGPAEE [YPEL3] | 2.57 ± 0.27 | 3.22 ± 0.1 |  | 

Sequence | protein stability index [1] | protein stability index [2] | protein stability index [3] | protein stability index [4]
FRLTTLLMSGCSSELKNRMEYALN [PLK2] | 2.46 ± 0.53 | 2.35 ± 0.47 |  | 
FRQRCLERMRNSRDRLLNRYRQAG [RPAIN] | 3.15 ± 0.12 | 3.2 ± 0.15 |  | 
FRVFHCTQYVRHSSDPFYTPEPDT [TPH1] | 2.15 ± 0.19 | 2.27 ± 0.35 |  | 
FRVNCYPGIDIREDLAQKLNLEED [HESX1] | 3.52 ± 0.34 | 3.69 ± 0.35 |  | 
FRVTLWVHPFVNYNSSRFGEGVER [MYORG] | 2.77 ± 0.89 | 2.62 ± 0.41 |  | 
FSGSLEPVACGSVLSEGSPLTEQE [SRPK2] | 5.23 ± 0.17 | 5.46 ± 0.16 |  | 
FSLKQEETLDYGKNYNYGMHYCAV [NEUROD6] | 2.4 ± 0.18 | 2.07 ± 0.34 |  | 
FSTQYRCFSVSMLAGPNDRSDVEK [UFD1] | 2.68 ± 0.39 | 3.01 ± 0.57 |  | 
FSVLMEKLCKKGLAATTSMAYAKL [FANCE] | 3.19 ± 0.73 | 2.75 ± 0.56 |  | 
FTKETTQKNFNNLYGTKGNYTSRV [TRIM29] | 2.26 ± 0.42 | 2.61 ± 0.27 |  | 
FVAGGISGTVAAVLTLPFDVVKTQ [SLC25A39] | 2.95 ± 0.63 | 2.76 ± 0.84 |  | 
FVKYLIRPQPWLEKEIEEATKKLG [FUT8] | 2.31 ± 0.29 | 2.47 ± 0.17 |  | 
FWSVMFFLMLINLGLGSMIGTMAG [SLC6A17] | 3.2 ± 0.55 | 3.49 ± 0.57 |  | 
FYFENLWSRNSKPVHTTILNPHIH [CAMK2A] | 2.33 ± 0.51 | 2.5 ± 0.45 |  | 
GASSCDGCKGFFRRSVRKNHMYSC [HNF4A] | 2.36 ± 0.22 | 2.62 ± 0.26 |  | 
GAVAPMDFTTAAEDQPINLCDKLP [NOL4L] | 4.7 ± 0.1 | 4.77 ± 0.34 |  | 
GAVFNGITLLILAELLIFSVPIVY [RTN3] | 3.33 ± 0.037 | 2.9 ± 0.39 |  | 
GCECEDGPDGQEMDPPNPEEVKTP [GAGE1] | 5.48 ± 0.25 | 5.81 ± 0.14 |  | 
GCIAAENCIGIRDFALHYCLHHVH [GAN] | 2.72 ± 0.25 | 2.53 ± 0.33 |  | 
GCKVPQEALLKLLAGLTRPDVRPP [SEPHS2] | 2.28 ± 0.33 | 2.03 ± 0.29 |  | 
GCTGDEAESRGHSKGWGRNYASII [MYCL] | 3.1 ± 0.13 | 3.2 ± 0.17 |  | 
GDSHYEIEIVHISTVQILTEGFPP [ZFYVE21] | 2.71 ± 0.8 | 2.85 ± 0.78 |  | 
GDVLHAHLDIWKSAAWMKERTSPG [SPDEF] | 2.92 ± 0.48 | 3.06 ± 0.46 |  | 

Sequence | protein stability index [1] | protein stability index [2] | protein stability index [3] | protein stability index [4]
GEASYSTIAPTLIADLFVADQRSR [SPNS1] | 3.21 ± 0.39 | 3.29 ± 0.6 |  | 
GEKEVEALKKSADWVSDWSSRPEN [BNIP3L] | 4.78 ± 0.27 | 4.88 ± 0.39 |  | 
GELVLATAISSFTRHVFTCGRRGI [TLE6] | 2.37 ± 0.31 | 2.52 ± 0.52 |  | 
GEREPFAETDEHTGANTKKPEDTA [FAM9B] | 5.46 ± 0.22 | 5.54 ± 0.52 |  | 
GFTNKQLQSGQEYVFFVLAVMEHA [PTPRD] | 2.95 ± 0.76 | 2.39 ± 0.79 |  | 
GGEAAHHTRSPYSTFYPPYHSPEL [NEUROD6] | 3.38 ± 0.2 | 3.58 ± 0.12 |  | 
GGGSGSAPGPSRIADYLLLPLAER [TRIB1] | 3.62 ± 0.48 |  |  | 
GHEEMVALLLGQGANINAQTEETQ [ANKRD17] | 4.81 ± 0.28 | 4.96 ± 0.19 |  | 
GHNDWVMDVAISNNKKWILSASKD [WDR88] | 3.19 ± 0.33 | 3.22 ± 0.59 |  | 
GHNSPLYKRQEESGAAASLNVDAA [CHIT1] | 5.19 ± 0.19 | 5.11 ± 0.22 |  | 
GIQLLIVEYKDIASIHWDWKIALL [SLC35F2] | 2.58 ± 0.61 | 2.69 ± 0.78 |  | 
GKKYNWSCDDLMGGGGLHSVGTYI [GFOD1] | 2.13 ± 0.35 | 2.33 ± 0.29 |  | 
GKSILLFGGAAAVAILAVAIGVAL [BCL2L13] | 2.98 ± 0.057 | 2.87 ± 0.3 |  | 
GKVKLQQNPGKFDELDMSPGDPKW [TBC1D10A] | 4.51 ± 0.32 | 4.83 ± 0.23 |  | 
GLELALACDIRVAASSAKMGLVET [AUH] | 2.37 ± 0.77 | 2.34 ± 0.18 |  | 
GLHVQHMGTSHGITRPSPRRSNSP [CCDC6] | 4.51 ± 0.17 | 4.57 ± 0.082 |  | 
GLSAEDGVWAVIISHQQCWASTSP [TRIM15] | 2.88 ± 0.51 | 2.39 ± 0.73 |  | 
GLSPSIDTLDHIRALDRLQEVPHE [PPP2CA] | 4.91 ± 0.22 | 4.87 ± 0.14 |  | 
GMSTIRPNPGFSMLDFLSERPWIK [APMAP] | 2.62 ± 0.34 | 2.76 ± 0.24 |  | 
GNDTSPSEGTNLNAPNSLGVSALC [HNF4A] | 4.65 ± 0.18 | 4.76 ± 0.15 |  | 
